Values quoted from earlier work in article PMC8535836.

Target: Neuroplastin Np65 Ig1 (Rattus norvegicus) (UniProt P97546)
Assay: Surface Plasmon Resonance

- Kd: 520 nM
Substance: Neuroplastin Np65 Ig1 (from UniProt P97546)
